This data set can be described thus: label from the status in PepcDB records.
In the case of “MNKALWYVVLPALLVTVLAQRFGHLTVNFPLKSVFGGAAPAEAALHRRIALPSGFSLTVYAADLPGARMLRFTRTGDLLVSQPNAGAIVLLEKDADGDGRPDGRRQLLTGLSRPHGLDLRDGWLYVAETYGVVRVRYDAAQRQISGAPEMVVSGIPGGGNHWSRTLKFGPDGGMYVSVGSSCNVCIEDDPLRATLLRFEPDGTKREIYATGLRNTVGFDWRPGSRELYGTDNGRDLLGDDFPPCELNRIEKGGFYGWPYANGNRVPDPDYGRGHEADIRRSLPPVHEFRAHVAPLGMVFLKGGGLPQDYRGAALVALHGSWNRSKKQGYEVVSLHFGADGRIAERPFMTGFNVDEDVIGRPVDVAEGPDGAIYVSDDYAGAIYRVLYRPPVTASHD”, the protein production result is “failed”.
“MKSNDLVDQIMAQVIAKVSEHAPASSAQPSHAQPSYKQRDTAMAEKTCSLTEFVGTAIGDTVGLVIANVDSALLDAMKLEKRYRSIGILGARTGAGPHIMAADEAVKATNTEVVSIELPRDTKGGAGHGSLIIFGGDDVSDVKRAVEVALKELDRTFGDVYANEAGHIELQYSARASHALEKAFGTPLGRSCGVIVGAPASIGVLMADTAVKSANVDVVAYSSPAQGTSFSNEVILVISGDSGAVRQAVISAREIGKTVLATLGAEPKNDRPSYI”: the protein production result is “failed”.
On to “MALTDNTRGALFMALAMASFTANDALTKSVTPYINTGQIMFVRGVMTVVLIYIAARHFGALRPLKTLLRPIIILRCLCEVTAAVLYLTALGLIEFSNASAILQSLPLVVTLGAALFLREPVGWRRWVAIIVGFIGVLVIIRPGPEGFTPGALLVVASLAVTAARDLLTRKMYADVPSLAITVITAFVNMAVGGLLIVPFGGWQPMNFTIVSHLAGSAILVLVGYQAIILSMRTGEISFVAPFRYTGLLWGFMIGVFFFNEKIDSYTIIGAMIVIGSGLYTFYRESLRKRSQMAKRAAATPTAATTVRPASVTKATVTEEAGE”, for which the protein production entry was “failed”.
As to “MMKNKVNIDTIIYLVLIITSLIFIYAGSFLFEEGSFIGNRGNNRTVDADTATDRNKPFPVVHKAVSTEINGIKQKINILEIDLSSGGVKIKPALAFDTIYGFQSLKDIAINNNAYAAVNAGFFYSYGEPSGMVVIDGKVYTKSTGKYPVFVVQGKNAFLSEIKSNIWILHGNRRIAADDINREGKPGETVVYTPVFGPTNRADKLHTSYIVENNRVARKFRGDTECKIPSDGMVITFYEPISSEEKFEVGDWIGIDIDPDFGPGFQAYECGSWLVRDGQVVAVDRDDWVGLLTNRDPRTAIGVKHDGKVVLVTVDGRQPGYSVGLSSRELAGYLLTLGIKDAAMLDGGASTQMIVQNKTVNRLPARERMLGGGIVVVVDEDL”, the protein production entry is reported as “failed”.
For “MNIVYLLMLSLILFSIGLYGISTSNVGIKMLISLEIIINSAILAGVSISSFYFSTGVLIFVLFAIAIGVIESAVGIAILTMVYKKYGRITISLLKEIKW” the value was “failed”; for “MFFNKKNNQDELKKLAATEAAKSITTEITLGVGTGSTVGFLIEELVNYRDKIKTVVSSSEDSTRKLKALGFDVVDLNYAGEIDLYIDGADECNNHKELIKGGGAALTREKICVAAAKKFICIIDESKKVNTLGNFPLPIEVIPMARSYIARQIVKLGGQPVYREQTITDNGNVILDVYNLKIDNPLKLETELNQITGVVTNGIFALKPADTVIMATKDSNIVVL”, “not failed”; for “MTGSVVVAGLGPGAQELITPEVSAALALATDIVGYAPYVARVAERDGLQRHASDNREELDRAGFALRLATEGRHVVIVSSGDPGVFAMAAALFEAIEAGDPSWRELDIRVLPGISAMFATAARIGAPLGHDFCAINLSDNLKPWETVEKRLRAAAEADFVIALYNPISKARPWQLGRAFELLRSIHPASVPVIFATAISDPRERIDVAPLGEAVPQRADMRTLVMIGSSQTRIIPRSSGADFVYTPRFSGAVS”, “failed”.
Regarding “KRKTKEQLAILKSFFLQCQWARREDYQKLEQITGLPRPEIIQWFGDTRYALKHGQLKWFRDNA”, the protein production result is recorded as “not failed”.
With “TEKTKAVETTDVALAIDTLVQNGLKALDEMRQLNQEQVDYIVAKASVAALDAHGELALHAVEETGRGVFEDKATKNLFACEHVVNNMRHTKTVGVIEEDDVTGLTLIAEPVGVVCGITPTTNPTSTAIFKSLISLKTRNPIIFAFHPSAQESSAHAARIVRDAAIAAGAPENCVQWIEQPSIDATNALMNHDGIATILATGGNAMVKAAYSCGKPALGVGAGNVPAYVEKSANIRQAAHDIVMSKSFDNGMVCASE”, the protein production entry is given as “not failed”.
Turning to “MPPKTPRKTAATAAAAAAEPPAPPPPPPPEEDPEQDSGPEDLPLVRLEFEETEEPDFTALCQKLKIPDHVRERAWLTWEKVSSVDGVLGGYIQKKKELWGICIFIAAVDLDEMSFTFTELQKNIEISVHKFFNLLKEIDTSTKVDNAMSRLLKKYDVLFALFSKLERTCELIYLTQPSSSISTEINSALVLKVSWITFLLAKGEVLQMEDDLVISFQLMLCVLDYFIKLSPPMLLKEPYKTAVIPINGSPRTPRRGQNRSARIAKQLENDTRIIEVLCKEHECNIDEVKNVYFKNFIPFMNSLGLVTSNGLPEVENLSKRYEEIYLKNKDLDARLFLDHDKTLQTDSIDSFETQRTPRKSNLDEEVNVIPPHTPVRTVMNTIQQLMMILNSASDQPSENLISYFNNCTVNPKESILKRVKDIGYIFKEKFAKAVGQGCVEIGSQRYKLGVRLYYRVMESMLKSEEERLSIQNFSKLLNDNIFHMSLLACALEVVMATYSRSTSQNLDSGTDLSFPWILNVLNLKAFDFYKVIESFIKAEGNLTREMIKHLERCEHRIMESLAWLSDSPLFDLIKQSKDREGPTDHLESACPLNLPLQNNHTAADMYLSPVRSPKKKGSTTRVNSTANAETQATSAFQTQKPLKSTSLSLFYKKVYRLAYLRLNTLCERLLSEHPELEHIIWTLFQHTLQNEYELMRDRHLDQIMMCSMYGICKVKNIDLKFKIIVTAYKDLPHAVQETFKRVLIKEEEYDSIIVFYNSVFMQRLKTNILQYASTRPPTLSPIPHIPRSPYKFPSSPLRIPGGNIYISPLKSPYKISEGLPTPTKMTPRSRILVSIGESFGTSEKFQKINQMVCNSDRVLKRSAEGSNPPKPLKKLRFDIEGSDEADGSKHLPGESKFQQKLAEMTSTRTRMQKQKMNDSMDTSNKEEK”, the protein production entry was “failed”.
“MHSPHDPYVRVRDAREHNLKGVDVDVPRDVLAVFTGVSGSGKSSLAFGTVYAEAQRRYFESVAPYARRLIHQIGAPKVGGITGLPPAVSLQQRRATPTSRSSVGTVTNLSNSLRMLFSRAGTYPPGAERLDSDAFSPNTAAGACPECHGLGRVHRTTEELLVPDPSLSIRDGAIAAWPGAWQGKNLRDVLDALGYDVDRPWRELPAEAREWILFTDEQPVVTVHPVREAGRIQRPYQGTYMSARRYVLKTFADSKSATLRAKAERFLNSAPCPVCGGGRLRAEALAVTVGGRTVAELAALPLAELPRLLPTEGEAAKVLAEDLISRIAPVVELGLGYLSLDRPTPTLSAGELQRLRLATQLRSGLFGVVYVLDEPSAGLHPADTEALLTVLERLKAAGNSVFVVEHHLGVMRGADWIVDVGPLAGEHGGRVLYSGPVDGLARVAESATARHLFDRSPAPVREVRTPRGAVTIGPVTRHNLRGVTVRVPLGVLTAVTGVSGSGKSTLVGEITEDLPGVDRLVSVDQRPIGRTPRSNLATYTGLFDVVRKVFAATDRARERGFGVGRFSFNVPGGRCETCQGEGFVSVELLFLPSTYAPCPDCGGARYNPETLEVAYRGRNIAEVLDLTVEGAAQFFTDTPAVARSLAALLDVGLGYLRLGQPATELSGGEAQRIKLASELQRGRRGHTLYLLDEPTTGLHPADVEVLMRQLHGLVDAGHTVVVVEHDMSVVAGADHVIDLGPGGGDAGGRIVAEGTPARVAGAAGSATAPYLARALDGGERR”: the protein production result was “failed”.
For “MSLSHKAWQNAHAMYENDACAKALGIDIISMDEGFAVVTMTVTAQMLNGHQSCHGGQLFSLADTAFAYACNSQGLAAVASACTIDFLRPGFAGDTLTATAQVRHQGKQTGVYDIEIVNQQQKTVALFRGKSHRIGGTITGEAEGGSHHHHHH” the value was “not failed”.

(Values after a protein production outcome set (Wang et al. 2014).)
